Data: patent US20240226296A9, “ERT2 MUTANTS AND USES THEREOF” (Senti Biosciences, Inc., priority 2021, published 2024)

Columns and labels:
[1] = following a typical clinical dose of tamoxifen; cited from earlier work
NK cells = test: Validation of ERT2 mutants with mCherry reporter in NK cells; assay type: cell-based; conditions: primary NK cells
Description: After 10 days of feeder cell activation, NK cells were co-transduced with ERT2 mutant virus and reporter SB01066 virus (Experimental Set-up 1). On Day 2 after transduction, transduced NK cells were treated with endoxifen or 4-OHT at a range of concentrations of 0 nM, 0.01 nM, 0.1 nM, 1 nM, and 10 nM. On Day 4, cells were checked for mCherry expression by flow cytometry.

Row | Molecule | average peak plasma concentration [1] | 4-OHT concentration at which variant is sensitive (NK cells) | endoxifen concentration at which variant is sensitive (NK cells)
1 | CC/C(=C(\c1ccccc1)c1ccc(OCCN(C)C)cc1)c1ccccc1 [tamoxifen] | approximately 40 ng/mL | – | –
2 | SB06142: L354I/L391V/N413D/M421L/S463P/M517A/H524L (protein) SAGDMRAANLWPSPLMIKRSKKNSLALSLTADQMVSALLDAEPPILYSEYDPTRPFSEASMMGLLTNLADREIVHMINWAKRVPGFVDLTLHDQVHLLECAWLEILMIGVVWRSMEHPVKLLFAPNLLLDRDQGKCVEGLVEIFDMLLATSSRFRMMNLQGEEFVCLKSIILLNSGVYTFLPSTLKSLEEKDHIHRVLDKITDTLIHLMAKAGLTLQQQHQRLAQLLLILSHIRHASNKGMELLYSMKCKNVVPLYDLLLEAADAHRLHAPTSRGGASVEETDQSHLATAGSTSSHSLQKYYITGEAEGFPATA | – | 0.1 nM | 0.1 nM
3 | SB06145: L409V/N413D/Q414E/M421L/S463P/H524L (protein) SAGDMRAANLWPSPLMIKRSKKNSLALSLTADQMVSALLDAEPPILYSEYDPTRPFSEASMMGLLTNLADRELVHMINWAKRVPGFVDLTLHDQVHLLECAWLEILMIGLVWRSMEHPVKLLFAPNLVLDRDEGKCVEGLVEIFDMLLATSSRFRMMNLQGEEFVCLKSIILLNSGVYTFLPSTLKSLEEKDHIHRVLDKITDTLIHLMAKAGLTLQQQHQRLAQLLLILSHIRHMSNKGMELLYSMKCKNVVPLYDLLLEAADAHRLHAPTSRGGASVEETDQSHLATAGSTSSHSLQKYYITGEAEGFPATA | – | 0.1 nM | 0.1 nM
4 | SB06136: L384M/L391V/N413D/M421L/S463P/H524L (protein) SAGDMRAANLWPSPLMIKRSKKNSLALSLTADQMVSALLDAEPPILYSEYDPTRPFSEASMMGLLTNLADRELVHMINWAKRVPGFVDLTLHDQVHLLECAWMEILMIGVVWRSMEHPVKLLFAPNLLLDRDQGKCVEGLVEIFDMLLATSSRFRMMNLQGEEFVCLKSIILLNSGVYTFLPSTLKSLEEKDHIHRVLDKITDTLIHLMAKAGLTLQQQHQRLAQLLLILSHIRHMSNKGMELLYSMKCKNVVPLYDLLLEAADAHRLHAPTSRGGASVEETDQSHLATAGSTSSHSLQKYYITGEAEGFPATA | – | 0.1 nM | 0.1 nM
